The text below walks through data of US7759464.

The target of test [1] is monoclonal anti-idiotypic antibody MMA383. The experiment in a line: sandwich ELISA on wells coated with anti-idiotypic antibody MMA383, detected with anti-human IgG+A+M peroxidase. A general note: In an ELISA, binding on a coated surface is turned into a signal by an enzyme label.
Test [2] shares this target. The experiment in a line: sandwich ELISA on wells coated with anti-idiotypic antibody MMA383; evaluated at EC50, normalized on IGN311 wt.

What is called EC50 is the concentration at which the effect is half-maximal. High values mean a need for much substance, low ones an effect from little substance.

B1: IGN311 wt. (antibody, V domains shown)
VH: EVQLLESGGGLVQPGGSLRLSCAASGFTFSDYYMYWVRQAPEKRLEWVAYISNGGGSSHYVDSVKGRFTISRDNSKNTLYLQMNSLRAEDTALYHCARGMDYGAWFAYWGQGTLVTVSS
VL: DIVMTQSPLSLPVTPGEPASISCRSSQSIVHSNGNTYLEWYLQKPGQSPQLLISKVSNRFSGVPDRFSGSGSGTDFTLKISRVEAEDVGVYYCFQGSHVPFTFGQGTKLEIK
For B1, in test [1], the Bottom (four parameter sigmoid fit) was found to be 96.1, the concentration giving a half-maximal response (EC50) was 0.0638 µg/mL, the Log EC50 is 1.8 log(ng/ml) and the Top (four parameter sigmoid fit) is 2060. Moreover, the % (binding activity normalized on IGN311 wt.) in test [2] stood at 100%.

B2: IGN312 Glyco I (antibody, V domains shown)
VH: EVQLLESGGGLVQPGGSLRLSCAASGFTFSDYYMYWVRQAPEKRLEWVAYISNGGGSSHYVDSVKGRFTISRDNSKNTLYLQMNSLRAEDTALYHCARGMDYGAWFAYWGQGTLVTVSS
VL: DIVMTQSPLSLPVTPGEPASISCRSSQSIVHSNGNTYLEWYLQKPGQSPQLLISKVSNRFSGVPDRFSGSGSGTDFTLKISRVEAEDVGVYYCFQGSHVPFTFGQGTKLEIK
modifications: bi-sected hybrid type N-glycosylation pattern in the Fc region (constant part of the heavy chain, not in this VH piece)
For B2, in test [1], the Bottom (four parameter sigmoid fit) came to 77, the half-maximal effective concentration (EC50) was 0.0688 µg/mL, the Log EC50 is 1.84 log(ng/ml) and the Top (four parameter sigmoid fit) worked out at 2100. Moreover, the % (binding activity normalized on IGN311 wt.) in test [2] came out at 108%.
